Experimental data: PMC2975675

Assays:
GST-Rabin8-F201A (human) = assay: pull-down
GST-Rabin8-L196A (human) = assay: pull-down

“Rab8a (in vitro translated Rab8A-T22N or Rab8A-Q67L) (from UniProt P61006 1-207) (natural protein)” gave a percent decrease of association against wild-type GST-Rabin8 (GST-Rabin8-F201A (human)) of 52% and a percent decrease of association against wild-type GST-Rabin8 (GST-Rabin8-L196A (human)) of 39%.
